Measured values from patent publication US11407988B2, “Composition and uses thereof” (priority 2015, dated 2022).
Where “and” joins values, the source holds several entries; their conditions need not be identical. Equal entries are not always repeated. Where two headings read alike, the source gives them in different places. Where a SMILES comes first, the peptide text is derived from it. [ ]: non-standard residue; d: D form. The star is where a group is joined. Sta = CC(C)C[C@H](N)[C@@H](O)CC(=O)O; Isovaleryl = CC(C)CC(=O)*

Assays:
[1] = tested on: purified protease of Thermoactinomyces sp. 16 (protease 16); format: biochemical; details: for Inhibition of the enzyme (in words): 10 mM inhibitor
[2] = molecular target: PrP^Sc, RML scrapie strain (Mus musculus, UniProt P04925); details: pH 7
BSA (1%, w/v) [3] = experiment: Effect of pH on protease activity of original and recombinant proteinase 16; format: biochemical; details: 0.1M Universal buffer, 30 min, 40 C
BSA (1%, w/v) [4] = experiment: Effect of pH and temperature on protease activity
[5] = molecular target: PrP (PrP^C and PrP^Sc) in GT22L lysate, 22 L scrapie strain (Mus musculus, UniProt P04925); details: pH 7
PrP^Sc, BSE strain 301V = PrP^Sc, BSE strain 301V (Mus musculus, UniProt P04925); details: pH 7
[6] = molecular target: PrP (PrP^C and PrP^Sc) in N2a22L20 lysate, 22 L scrapie strain (Mus musculus, UniProt P04925); details: pH 7
[7] = tested on: bovine serum albumin (BSA); experiment: Protease assay of purification steps of protease 16 (BSA, 0.1M CAPS pH 11.0, 40° C.); format: biochemical
Excerpt: The secreted protease was purified from cell free supernatant by (NH4)2SO4 (0-60%) fractionation followed by affinity chromatography on Bacitricin-Sepharose 4B according to the quantities shown in Table 3 below.
The first step was ammonium sulphate (0-60%) fractionation. To express the final ammonium sulphate concentration as % ammonium sulphate saturation the Green and Hughes calculations were used. The precipitate obtained after fractionation was suspended in 0.02M HEPES buffer, pH 7.0 and was dialysed against water for 24 h. The second step used was affinity chromatography on bacitracin-Sepharose 4B using a modification of the method of Stepanov and Rudenskaya. Bacitracin-Sepharose 4B was equilibrated with 0.04M Tris/HCL, pH 7.9. Enzyme solution in 0.04M Tris/HCL pH 7.9 was applied to the column and the column was washed with the same buffer to remove all unbound protein. […] The propan-2-ol and NaCl were removed from the protease solution by dialysis.

[8] = molecular target: pK resistant prion material (PrP^Sc) (Mus musculus, UniProt P04925)
[9] = molecular target: PrP (PrP^C and PrP^Sc) in GTK lysate, chandler scrapie isolate (Mus musculus, UniProt P04925); details: pH 7
[10] = 10 mM reagent, purified protease 16

Q: With CC(C)C[C@H](NC(=O)[C@@H](O)[C@H](N)Cc1ccccc1)C(=O)O [Bestatin] as the molecule, how does the “Residual protease activity (% of control, no reagent) (10 mM)” value [1] read?
A: The value was 92.6 % of control, no reagent.

Q: How did the “Residual protease activity (% of control, no reagent) (10 mM)” value [1] turn out when O=C(O)CN(CCN(CC(=O)O)CC(=O)O)CC(=O)O [Ethylenediaminetetraacetic acid] was run?
A: The value was 99.6 % of control, no reagent.

Q: How did the “Residual protease activity (% of control, no reagent) (10 mM)” value [1] turn out when CC(=O)N[C@@H](CC(C)C)C(=O)N[C@@H](CC(C)C)C(=O)N[C@H](C=O)CCCNC(=N)N [Leupeptin] was run?
A: The value was 56.8 % of control, no reagent.

Q: With Cl.NCCc1ccc(S(=O)(=O)F)cc1 [Pefabloc] as the molecule, how does the “Inhibition of the enzyme (in words)” value [1] read?
A: Its value is “significantly inhibited”.

Q: What about the “Residual protease activity (% of control, no reagent) (10 mM)” value [1, 10] of the same molecule?
A: The value was 2.9 % of control, no reagent.

Q: CC(C)CC(=O)N[C@H](C(=O)N[C@H](C(=O)N[C@@H](CC(C)C)[C@@H](O)CC(=O)N[C@@H](C)C(=O)N[C@@H](CC(C)C)[C@@H](O)CC(=O)O)C(C)C)C(C)C [Pepstatin] (Isovaleryl-VV[Sta]A[Sta]-OH) was tested. Which “Residual protease activity (% of control, no reagent) (10 mM)” value [1] did it give?
A: The value was 97.6 % of control, no reagent.

Q: For O=S(=O)(F)Cc1ccccc1 [Phenylmethylsulfonyl fluoride], which “Inhibition of the enzyme (in words)” value [1] is on record?
A: The value was “significantly inhibited”.

Q: And the “Residual protease activity (% of control, no reagent) (10 mM)” value [1, 10]?
A: The value was 5.4 % of control, no reagent.

B1: recombinant Thermitase 16: protease 16 cloned and heterologously expressed in Lactococcus lactis strain MG1363 (L. lactis strain 16), heat activated (protein)
chain: YTPNDPYFSSRQYGPQKIQAPQAWDIAEGSGVKIAIVDTGVQSNHPDLAGKVVGGWDFVDNDSTPQDGNGHGTHCAGIAAAVTNNSTGIAGTAPKASILAVRVLDNSGSGTWTAVANGITYAADQGAKVISLSLGGTVGNSGLQQAVDYAWNKGSVVVAAAGNAGNTAPNYPAYYSNAIAVASTDQNDNKSSFSTYGSWVDVAAPGSSIYSTYPTSTYASLSGTSMATPHVAGVAGLLASQGRSASNIRAAIENTADKISGTGTYWAKGRVNAYKAVQY
Q: For B1, which “Removal of RML prion strain as detected by western blot” value [2] is on record?
A: The value was “remove all traces of the RML prion strain”.

Q: And the “Activity levels of original versus recombinant protease at the same pHs” value (BSA (1%, w/v) [3])?
A: Its value is “little difference in activity levels”.

B2: protease 16: Thermitase (serine alkaline protease, EC 3.4.21.66) secreted by Thermoactinomyces sp. 16; mature amino acid sequence SEQ ID NO: 1 (protein)
chain: B1 chain
modifications: Thermoactinomyces sp. 16
Q: For B2, which “pH of optimal activity” value (BSA (1%, w/v) [4]; BSA in 0.1M Universal buffer, pHs 2.0-12.0) is on record?
A: Its value is 11.0 and > 8.0.

Q: What about the “Temperature of optimal activity” value (BSA (1%, w/v) [4]; assay at 20-90° C.) of the same molecule?
A: Its value is 50 °C.

Q: What about the “Activity at the assay pH of pH 7.0” value (BSA (1%, w/v) [4]; pH 7.0) of the same molecule?
A: Its value is “retains significant activity”.

Q: What about the “Detectable PrP by western blot, antibody 7A12” value (“Detectable PrP by western blot” below) [5] of the same molecule?
A: The value was “complete loss of detectable PrP”.

Q: What about the “Time to degrade 301V brain material” value (PrP^Sc, BSE strain 301V) of the same molecule?
A: The value was ≤ 15 min.

Q: What about the “Time to degrade 301V from mouse brain homogenate” value (PrP^Sc, BSE strain 301V) of the same molecule?
A: The value was ≤ 15 min.

Q: What about the “Detectable PrP by western blot” value [6] of the same molecule?
A: Its value is “complete loss of detectable PrP”.

Q: And the “PrP signal by western blot, antibodies 8H4, 11G5 and GE8” value [6]?
A: The value was “No signal”.

Q: What about the “Specific activity (units/mg protein)” value ([7]; purification step: (NH4)2SO4 (0-60%) fractionation) of the same molecule?
A: The value was 0.79 units/mg protein.

Q: And the “Specific activity (units/mg protein)” value ([7]; purification step: Bacitricin-Sepharose 4B)?
A: The value was 3.56 units/mg protein.

Q: And the “Specific activity (units/mg protein)” value ([7]; purification step: Cell free supernatant)?
A: Its value is 0.05 units/mg protein.

Q: What about the “Removal of RML prion strain as detected by western blot” value [2] of the same molecule?
A: The value was “remove all traces of the RML prion strain”.

Q: What about the “Activity levels of original versus recombinant protease at the same pHs” value (BSA (1%, w/v) [3]) of the same molecule?
A: Its value is “little difference in activity levels”.

Q: And the Detectable prion signal [8]?
A: The Detectable prion signal was “complete loss of detectable prion signal”.

Q: What about the “Time to degrade the prion” value [8] of the same molecule?
A: The value was ≤ 15 min.

Q: And the “Detectable PrP by western blot” value [9]?
A: The value was “complete loss of detectable PrP”.
